Data as given in patent publication US8759482B2, “Kinetically efficient substrate for lipoic acid ligase” (Massachusetts Institute of Technology, priority 2009, dated 2014).

Substrate: CC[C@H](C)[C@H](NC(=O)[C@H](CCC(=O)O)NC(=O)[C@H](Cc1ccccc1)NC(=O)CN)C(=O)N[C@@H](CC(=O)O)C(=O)N[C@@H](CCCCN)C(=O)N[C@H](C(=O)N[C@@H](Cc1c[nH]c2ccccc12)C(=O)N[C@@H](Cc1ccc(O)cc1)C(=O)N[C@@H](CC(=O)O)C(=O)N[C@@H](CC(C)C)C(=O)N[C@@H](CC(=O)O)C(=O)N[C@@H](C)C(=O)O)C(C)C
Test: Lp1A-catalyzed lipoylation kinetics (kcat, Km) by HPLC
Assay type: biochemical, Escherichia coli
Settings: other: synthetic LAP2 peptide, 50 nM Lp1A, 750 μM lipoic acid, 30° C.
Protocol: Various concentrations of synthetic LAP2 peptide (not a fusion protein) were lipoylated with 50 nM Lp1A, 750 μM lipoic acid, and 3 mM ATP, and initial reaction rates were measured by HPLC. […] Measurements were performed in triplicate.
Using HPLC to quantify product formation, the kcat and Km values were measured for Lp1A-catalyzed lipoylation of a synthetic LAP2 peptide (without an attached fusion protein).
To measure the kcat and Km values for lipoylation, 50 nM Lp1A was combined with 750 μM lipoic acid, 2 mM ATP, and 5 mM magnesium acetate in DPBS. Varying concentrations of LAP2 (5.5, 11, 22, 44, 88, 176, or 352 μM) were used; 60 μL aliquots were removed from the 30° C. reactions at 5 min intervals, up to 20 min, and quenched with 180 mM EDTA (final concentration). HPLC was used to determine the amount of product in each aliquot, and kinetic parameters were extracted using the Michaelis-Menten equation as described previously.^13,28

B1: Escherichia coli lipoic acid ligase (Lp1A) (Escherichia coli K-12) (protein)
chain: MSTLRLLISDSYDPWFNLAVEECIFRQMPATQRVLFLWRNADTVVIGRAQNPWKECNTRRMEEDNVRLARRSSGGGAVFHDLGNTCFTFMAGKPEYDKTISTSIVLNALNALGVSAEASGRNDLVVKTVEGDRKVSGSAYRETKDRGFHHGTLLLNADLSRLANYLNPDKKKLAAKGITSVRSRVTNLTELLPGITHEQVCEAITEAFFAHYGERVEAEIISPNKTPDLPNFAETFARQSSWEWNFGQAPAFSHLLDERFTWGGVELHFDVEKGHITRAQVFTDSLNPAPLEALAGRLQGCLYRADMLQQECEALLVDFPEQEKELRELSAWMAGAVR
**Q.** B1 was tested. Which Km did it give?
**A.** 13.32 ± 1.78 µM

**Q.** What about the kcat of the same protein?
**A.** 0.22 s⁻¹

**Q.** What about the kcat/Km of the same protein?
**A.** 16500 M⁻¹ s⁻¹
